Data taken from the Human Domainome abundance scans (Beltran et al. 2025).
± gives the uncertainty stated by the source.

B1: Far upstream element-binding protein 2, residues 142 to 214; numbered along this chain, Q92945 (parent)
chain: RTSMTEEYRVPDGMVGLIIGRGGEQINKIQQDSGCKVQISPDSGGLPERSVSLTGAPESVQKAKMMLDDIVSR

Variants of: B1
Assay: abundance fitness (aPCA) (normalised: wild type 0, dead -1); higher = more abundant; growth selection in yeast, the domain comes from the species named
Details: Homo sapiens

Q: For RTSMTEEYRVPDGMVGLIIGRGGEQINKIQQDSGCKVQISPASGGLPERSVSLTGAPESVQKAKMMLDDIVSR [D42A], which abundance fitness is on record?
A: The abundance fitness was -0.013 ± 0.049.

Q: For RTSMTEEYRVPDGMVGLIIGRGGEQINKIQQDSGCKVQISPVSGGLPERSVSLTGAPESVQKAKMMLDDIVSR [D42V], which abundance fitness is on record?
A: Its abundance fitness is -0.125 ± 0.044.

Q: Which abundance fitness does the source give for RTSMTEEYRVPDGMVGLIIGRGGEQINKIQQDSGCKVQISPLSGGLPERSVSLTGAPESVQKAKMMLDDIVSR [D42L] here?
A: Its abundance fitness is -0.232 ± 0.045.

Q: Which abundance fitness does the source give for RTSMTEEYRVPDGMVGLIIGRGGEQINKIQQDSGCKVQISPNSGGLPERSVSLTGAPESVQKAKMMLDDIVSR [D42N] here?
A: The abundance fitness was -0.069 ± 0.092.

Q: For RTSMTEEYRVPDGMVGLIIGRGGEQINKIQQDSGCKVQISPWSGGLPERSVSLTGAPESVQKAKMMLDDIVSR [D42W], which abundance fitness is on record?
A: The abundance fitness was -0.203 ± 0.055.

Q: With RTSMTEEYRVPDGMVGLIIGRGGEQINKIQQDSGCKVQISPESGGLPERSVSLTGAPESVQKAKMMLDDIVSR [D42E] as the variant, how does the abundance fitness read?
A: Its abundance fitness is -0.007 ± 0.053.

Q: For RTSMTEEYRVPDGMVGLIIGRGGEQINKIQQDSGCKVQISPRSGGLPERSVSLTGAPESVQKAKMMLDDIVSR [D42R], which abundance fitness is on record?
A: The abundance fitness was -0.11 ± 0.039.

Q: Which abundance fitness does the source give for RTSMTEEYRVPDGMVGLIIGRGGEQINKIQQDSGCKVQISPFSGGLPERSVSLTGAPESVQKAKMMLDDIVSR [D42F] here?
A: The abundance fitness was -0.163 ± 0.085.

Q: Which abundance fitness does the source give for RTSMTEEYRVPDGMVGLIIGRGGEQINKIQQDSGCKVQISPSSGGLPERSVSLTGAPESVQKAKMMLDDIVSR [D42S] here?
A: Its abundance fitness is -0.038 ± 0.047.

Q: With RTSMTEEYRVPDGMVGLIIGRGGEQINKIQQDSGCKVQISPYSGGLPERSVSLTGAPESVQKAKMMLDDIVSR [D42Y] as the variant, how does the abundance fitness read?
A: Its abundance fitness is -0.061 ± 0.085.

Q: Which abundance fitness does the source give for RTSMTEEYRVPDGMVGLIIGRGGEQINKIQQDSGCKVQISPKSGGLPERSVSLTGAPESVQKAKMMLDDIVSR [D42K] here?
A: The abundance fitness was -0.014 ± 0.067.

Q: For RTSMTEEYRVPDGMVGLIIGRGGEQINKIQQDSGCKVQISPGSGGLPERSVSLTGAPESVQKAKMMLDDIVSR [D42G], which abundance fitness is on record?
A: The abundance fitness was -0.097 ± 0.042.

Q: With RTSMTEEYRVPDGMVGLIIGRGGEQINKIQQDSGCKVQQSPDSGGLPERSVSLTGAPESVQKAKMMLDDIVSR [I39Q] as the variant, how does the abundance fitness read?
A: The abundance fitness was -0.543 ± 0.064.

Q: Which abundance fitness does the source give for RTSMTEEYRVPDGMVGLIIGRGGEQINKIQQDSGCKVQSSPDSGGLPERSVSLTGAPESVQKAKMMLDDIVSR [I39S] here?
A: Its abundance fitness is -0.572 ± 0.053.

Q: For RTSMTEEYRVPDGMVGLIIGRGGEQINKIQQDSGCKVQPSPDSGGLPERSVSLTGAPESVQKAKMMLDDIVSR [I39P], which abundance fitness is on record?
A: Its abundance fitness is -0.477 ± 0.052.

Q: For RTSMTEEYRVPDGMVGLIIGRGGEQINKIQQDSGCKVQLSPDSGGLPERSVSLTGAPESVQKAKMMLDDIVSR [I39L], which abundance fitness is on record?
A: The abundance fitness was -0.091 ± 0.043.

Q: For RTSMTEEYRVPDGMVGLIIGRGGEQINKIQQDSGCKVQFSPDSGGLPERSVSLTGAPESVQKAKMMLDDIVSR [I39F], which abundance fitness is on record?
A: Its abundance fitness is -0.177 ± 0.09.

Q: With RTSMTEEYRVPDGMVGLIIGRGGEQINKIQQDSGCKVQWSPDSGGLPERSVSLTGAPESVQKAKMMLDDIVSR [I39W] as the variant, how does the abundance fitness read?
A: The abundance fitness was -0.304 ± 0.055.

Q: Which abundance fitness does the source give for RTSMTEEYRVPDGMVGLIIGRGGEQINKIQQDSGCKVQGSPDSGGLPERSVSLTGAPESVQKAKMMLDDIVSR [I39G] here?
A: Its abundance fitness is -0.648 ± 0.047.

Q: Which abundance fitness does the source give for RTSMTEEYRVPDGMVGLIIGRGGEQINKIQQDSGCKVQVSPDSGGLPERSVSLTGAPESVQKAKMMLDDIVSR [I39V] here?
A: The abundance fitness was -0.045 ± 0.046.

Q: For RTSMTEEYRVPDGMVGLIIGRGGEQINKIQQDSGCKVQRSPDSGGLPERSVSLTGAPESVQKAKMMLDDIVSR [I39R], which abundance fitness is on record?
A: The abundance fitness was -0.645 ± 0.044.

Q: With RTSMTEEYRVPDGMVGLIIGRGGEQINKIQQDSGCKVQNSPDSGGLPERSVSLTGAPESVQKAKMMLDDIVSR [I39N] as the variant, how does the abundance fitness read?
A: The abundance fitness was -0.578 ± 0.11.

Q: For RTSMTEEYRVPDGMVGLIIGRGGEQINKIQQDSGCKVQYSPDSGGLPERSVSLTGAPESVQKAKMMLDDIVSR [I39Y], which abundance fitness is on record?
A: The abundance fitness was -0.386 ± 0.085.

Q: With RTSMTEEYRVPDGMVGLIIGRGGEQINKIQQDSGCKVQKSPDSGGLPERSVSLTGAPESVQKAKMMLDDIVSR [I39K] as the variant, how does the abundance fitness read?
A: The abundance fitness was -0.701 ± 0.087.

Q: With RTSMTEEYRVPDGMVGLIIGRGGEQINKIQQDSGCKVQISPDCGGLPERSVSLTGAPESVQKAKMMLDDIVSR [S43C] as the variant, how does the abundance fitness read?
A: Its abundance fitness is -0.135 ± 0.066.

Q: For RTSMTEEYRVPDGMVGLIIGRGGEQINKIQQDSGCKVQISPDKGGLPERSVSLTGAPESVQKAKMMLDDIVSR [S43K], which abundance fitness is on record?
A: The abundance fitness was -0.1 ± 0.064.

Q: For RTSMTEEYRVPDGMVGLIIGRGGEQINKIQQDSGCKVQISPDPGGLPERSVSLTGAPESVQKAKMMLDDIVSR [S43P], which abundance fitness is on record?
A: The abundance fitness was -0.083 ± 0.044.

Q: For RTSMTEEYRVPDGMVGLIIGRGGEQINKIQQDSGCKVQISPDQGGLPERSVSLTGAPESVQKAKMMLDDIVSR [S43Q], which abundance fitness is on record?
A: Its abundance fitness is -0.027 ± 0.052.

Q: Which abundance fitness does the source give for RTSMTEEYRVPDGMVGLIIGRGGEQINKIQQDSGCKVQISPDIGGLPERSVSLTGAPESVQKAKMMLDDIVSR [S43I] here?
A: The abundance fitness was -0.098 ± 0.086.

Q: For RTSMTEEYRVPDGMVGLIIGRGGEQINKIQQDSGCKVQISPDDGGLPERSVSLTGAPESVQKAKMMLDDIVSR [S43D], which abundance fitness is on record?
A: The abundance fitness was -0.031 ± 0.06.

Q: Which abundance fitness does the source give for RTSMTEEYRVPDGMVGLIIGRGGEQINKIQQDSGCKVQISPDMGGLPERSVSLTGAPESVQKAKMMLDDIVSR [S43M] here?
A: Its abundance fitness is -0.101 ± 0.07.

Q: Which abundance fitness does the source give for RTSMTEEYRVPDGMVGLIIGRGGEQINKIQQDSGCKVQISPDFGGLPERSVSLTGAPESVQKAKMMLDDIVSR [S43F] here?
A: Its abundance fitness is -0.328 ± 0.088.

Q: Which abundance fitness does the source give for RTSMTEEYRVPDGMVGLIIGRGGEQINKIQQDSGCKVQISPDNGGLPERSVSLTGAPESVQKAKMMLDDIVSR [S43N] here?
A: The abundance fitness was -0.046 ± 0.075.

Q: Which abundance fitness does the source give for RTSMTEEYRVPDGMVGLIIGRGGEQINKIQQDSGCKVQISPDHGGLPERSVSLTGAPESVQKAKMMLDDIVSR [S43H] here?
A: Its abundance fitness is -0.113 ± 0.065.

Q: Which abundance fitness does the source give for RTSMTEEYRVPDGMVGLIIGRGGEQINKIQQDSGCKVQISPDGGGLPERSVSLTGAPESVQKAKMMLDDIVSR [S43G] here?
A: The abundance fitness was -0.034 ± 0.041.

Q: For RTSMTEEYRVPDGMVGLIIGRGGEQINKIQQDSGCKVQISPDLGGLPERSVSLTGAPESVQKAKMMLDDIVSR [S43L], which abundance fitness is on record?
A: Its abundance fitness is -0.116 ± 0.048.

Q: With RTSMTEEYRVPDGMVGLIIGRGGEQINKIQQDSGCKVQISPDRGGLPERSVSLTGAPESVQKAKMMLDDIVSR [S43R] as the variant, how does the abundance fitness read?
A: Its abundance fitness is -0.023 ± 0.041.

Q: With RTSMTEEYRVPDGMVGLIIGRGGEQINKIQQDSGCKVQISPDEGGLPERSVSLTGAPESVQKAKMMLDDIVSR [S43E] as the variant, how does the abundance fitness read?
A: Its abundance fitness is -0.082 ± 0.053.
